Data on two molecules can be found in publication PMC6391106, “Hyperfunctional complement C3 promotes C5-dependent atypical hemolytic uremic syndrome in mice” (The Journal of Clinical Investigation, 2019).

To fix the notation:
B1: murine C3b Asn1115 (complex)
chain 1: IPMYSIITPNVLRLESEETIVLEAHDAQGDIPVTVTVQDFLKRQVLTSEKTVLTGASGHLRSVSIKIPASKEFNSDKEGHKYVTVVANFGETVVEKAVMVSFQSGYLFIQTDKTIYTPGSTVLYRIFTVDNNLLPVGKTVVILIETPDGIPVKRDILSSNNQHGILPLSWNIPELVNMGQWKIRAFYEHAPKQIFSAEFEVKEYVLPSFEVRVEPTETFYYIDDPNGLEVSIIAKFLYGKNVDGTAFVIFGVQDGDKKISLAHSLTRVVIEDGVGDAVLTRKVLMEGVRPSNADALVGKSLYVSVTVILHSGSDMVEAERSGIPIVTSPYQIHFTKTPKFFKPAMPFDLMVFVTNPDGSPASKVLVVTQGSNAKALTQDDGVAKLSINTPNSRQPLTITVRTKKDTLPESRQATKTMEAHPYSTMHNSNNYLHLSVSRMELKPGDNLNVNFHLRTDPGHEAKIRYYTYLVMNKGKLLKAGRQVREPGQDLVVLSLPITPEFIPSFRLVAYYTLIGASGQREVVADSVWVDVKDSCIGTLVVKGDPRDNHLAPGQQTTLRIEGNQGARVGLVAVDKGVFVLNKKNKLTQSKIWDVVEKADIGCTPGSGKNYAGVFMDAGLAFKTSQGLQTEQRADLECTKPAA
chain 2: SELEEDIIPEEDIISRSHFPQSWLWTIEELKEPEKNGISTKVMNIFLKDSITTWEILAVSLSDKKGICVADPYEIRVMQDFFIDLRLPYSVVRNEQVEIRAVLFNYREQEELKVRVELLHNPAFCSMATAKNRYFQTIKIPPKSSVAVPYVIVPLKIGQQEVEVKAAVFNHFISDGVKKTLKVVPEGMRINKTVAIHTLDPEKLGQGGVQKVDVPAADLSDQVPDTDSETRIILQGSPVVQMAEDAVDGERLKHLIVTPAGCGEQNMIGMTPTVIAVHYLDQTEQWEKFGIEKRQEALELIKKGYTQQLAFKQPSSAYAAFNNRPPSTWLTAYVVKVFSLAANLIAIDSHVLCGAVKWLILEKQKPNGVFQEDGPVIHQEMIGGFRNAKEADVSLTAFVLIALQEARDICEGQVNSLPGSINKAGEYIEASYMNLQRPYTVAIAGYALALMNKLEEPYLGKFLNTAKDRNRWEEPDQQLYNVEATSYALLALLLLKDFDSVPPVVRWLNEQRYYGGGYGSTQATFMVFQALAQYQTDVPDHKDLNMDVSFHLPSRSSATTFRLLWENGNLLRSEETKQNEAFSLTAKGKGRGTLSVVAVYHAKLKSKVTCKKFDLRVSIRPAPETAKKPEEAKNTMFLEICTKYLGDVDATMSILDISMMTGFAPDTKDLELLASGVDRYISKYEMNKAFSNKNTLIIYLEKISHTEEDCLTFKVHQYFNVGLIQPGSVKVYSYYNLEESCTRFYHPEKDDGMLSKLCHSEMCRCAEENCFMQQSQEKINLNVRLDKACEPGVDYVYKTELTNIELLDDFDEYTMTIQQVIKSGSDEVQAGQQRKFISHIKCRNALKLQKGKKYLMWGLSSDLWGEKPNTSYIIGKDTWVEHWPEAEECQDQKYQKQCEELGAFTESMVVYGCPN
modifications: C3b made from plasma-purified C3 by factor B/factor D cleavage (C3a released); beta and alpha' chains disulfide-linked; thioester (Cys1010-Gln1013) hydrolysed; N-glycosylated; amine-coupled to CM5 …

Test in all cases: SPR; BIAcore S200; murine C3b (WT or Asn1115) amine coupled to a CM5 chip (930 ± 10 RU); analytes in 2-fold dilution series in HBST (10 mM HEPES, 150 mM NaCl, 0.005% Tween-20, pH 7.4), 30 μl/min for 200 s; steady-state model
What all share (details): both partners purified
(In general: In SPR one partner is held on a chip, and binding of the other changes the refractive index at the surface.)

Experiment [1] addresses T1, recombinant murine FH SCRs 1–5 (mouse).
T1 construct: mouse complement factor H, short consensus repeats 1–5; also called recombinant mouse FH1–5; mFH SCRs 1–5; source: recombinant

Experiment [2] concerns the target T2, recombinant murine Crry SCRs 1–5 (mouse).
T2 construct: mouse Crry (complement receptor 1-related protein), short consensus repeats 1–5; also called recombinant mouse Crry; mouse Crry; source: recombinant

Experiment [3] has as its target B1.

T2 sequence (P01027 749-1663, change not shown, chain 1 of 2): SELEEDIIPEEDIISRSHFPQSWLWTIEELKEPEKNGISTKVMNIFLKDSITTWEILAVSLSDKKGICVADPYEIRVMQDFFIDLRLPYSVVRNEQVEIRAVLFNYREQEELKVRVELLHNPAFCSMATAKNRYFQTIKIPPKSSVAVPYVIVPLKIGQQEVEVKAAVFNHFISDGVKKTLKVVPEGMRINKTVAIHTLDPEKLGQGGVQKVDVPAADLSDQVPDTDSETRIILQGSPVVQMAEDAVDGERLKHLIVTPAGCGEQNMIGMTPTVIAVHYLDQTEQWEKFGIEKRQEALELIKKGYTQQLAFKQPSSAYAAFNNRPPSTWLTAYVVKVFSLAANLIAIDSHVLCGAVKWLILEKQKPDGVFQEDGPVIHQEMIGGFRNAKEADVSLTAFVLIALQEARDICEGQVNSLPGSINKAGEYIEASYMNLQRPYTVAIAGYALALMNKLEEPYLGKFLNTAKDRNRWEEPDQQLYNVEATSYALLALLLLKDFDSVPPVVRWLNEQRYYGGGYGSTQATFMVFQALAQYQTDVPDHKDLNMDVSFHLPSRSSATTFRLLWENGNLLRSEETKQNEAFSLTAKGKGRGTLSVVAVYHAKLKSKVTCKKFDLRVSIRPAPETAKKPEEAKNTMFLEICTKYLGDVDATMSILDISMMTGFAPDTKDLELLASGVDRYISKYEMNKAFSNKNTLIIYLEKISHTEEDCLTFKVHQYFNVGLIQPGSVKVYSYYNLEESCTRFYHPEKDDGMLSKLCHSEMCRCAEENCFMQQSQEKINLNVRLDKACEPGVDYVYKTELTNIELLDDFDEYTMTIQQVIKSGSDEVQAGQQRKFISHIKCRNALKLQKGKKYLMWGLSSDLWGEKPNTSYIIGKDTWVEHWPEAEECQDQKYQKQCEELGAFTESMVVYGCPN
T2 sequence (P01027 749-1663 D1115N, chain 2 of 2): as the sequence (P01027 749-1663, change not shown, chain 1 of 2) above, with D367N counted along it

For the molecule B1, the Kd (commonly the equilibrium constant for the complex coming apart) in experiment [1] worked out at 3.1 µM; in experiment [2], 3.5 µM.

B2: full-length mouse serum-derived FH (natural protein, UniProt P06909 19-1234, looked up)
chain: EDCKGPPPRENSEILSGSWSEQLYPEGTQATYKCRPGYRTLGTIVKVCKNGKWVASNPSRICRKKPCGHPGDTPFGSFRLAVGSQFEFGAKVVYTCDDGYQLLGEIDYRECGADGWINDIPLCEVVKCLPVTELENGRIVSGAAETDQEYYFGQVVRFECNSGFKIEGHKEIHCSENGLWSNEKPRCVEILCTPPRVENGDGINVKPVYKENERYHYKCKHGYVPKERGDAVCTGSGWSSQPFCEEKRCSPPYILNGIYTPHRIIHRSDDEIRYECNYGFYPVTGSTVSKCTPTGWIPVPRCTLKPCEFPQFKYGRLYYEESLRPNFPVSIGNKYSYKCDNGFSPPSGYSWDYLRCTAQGWEPEVPCVRKCVFHYVENGDSAYWEKVYVQGQSLKVQCYNGYSLQNGQDTMTCTENGWSPPPKCIRIKTCSASDIHIDNGFLSESSSIYALNRETSYRCKQGYVTNTGEISGSITCLQNGWSPQPSCIKSCDMPVFENSITKNTRTWFKLNDKLDYECLVGFENEYKHTKGSITCTYYGWSDTPSCYERECSVPTLDRKLVVSPRKEKYRVGDLLEFSCHSGHRVGPDSVQCYHFGWSPGFPTCKGQVASCAPPLEILNGEINGAKKVEYSHGEVVKYDCKPRFLLKGPNKIQCVDGNWTTLPVCIEEERTCGDIPELEHGSAKCSVPPYHHGDSVEFICEENFTMIGHGSVSCISGKWTQLPKCVATDQLEKCRVLKSTGIEAIKPKLTEFTHNSTMDYKCRDKQEYERSICINGKWDPEPNCTSKTSCPPPPQIPNTQVIETTVKYLDGEKLSVLCQDNYLTQDSEEMVCKDGRWQSLPRCIEKIPCSQPPTIEHGSINLPRSSEERRDSIESSSHEHGTTFSYVCDDGFRIPEENRITCYMGKWSTPPRCVGLPCGPPPSIPLGTVSLELESYQHGEEVTYHCSTGFGIDGPAFIICEGGKWSDPPKCIKTDCDVLPTVKNAIIRGKSKKSYRTGEQVTFRCQSPYQMNGSDTVTCVNSRWIGQPVCKDNSCVDPPHVPNATIVTRTKNKYLHGDRVRYECNKPLELFGQVEVMCENGIWTEKPKCRDSTGKCGPPPPIDNGDITSLSLPVYEPLSSVEYQCQKYYLLKGKKTITCRNGKWSEPPTCLHACVIPENIMESHNIILKWRHTEKIYSHSGEDIEFGCKYGYYKARDSPPFRTKCINGTINYPTCV
notes: mouse complement factor H, full length, from serum; also called murine FH; mouse FH
For B2, in experiment [3], the Kd came to 3.7 µM.
